Measured values as given in patent US20260242839A1, “GLYCOSIDE PRODUCT BIOSYNTHESIS AND RECOVERY” (Manus Bio Inc., priority 2023, published 2026).

Tested on: steviol glycoside
Experiment: steviol glycoside bioconversion with overexpressed genes complemented on plasmid
Type: cell-based, E. coli
Conditions: chassis strain with UGT SEQ ID NOS: 14 and 24; stevia leaf extract and glucose fed; 37° C., 48 hr; FIG. 2
Experimental: Other bacterial genes were overexpressed, and bioconversion tested as compared to the chassis strain expressing UGT enzymes of SEQ ID NOS: 14 and 24. […] Fold improvement is with respect to total steviol glycoside conversion. Stevia leaf extract and glucose were fed to the bioconversion strains. Bioconversion took place at 37° C. for 48 hr. Data were quantified by reverse phase LC DAD to quantify conversion of steviol glycosides.

Molecule	improvement of total steviol glycoside conversion by gene complementation
galU: E. coli galU (UTP-glucose-1-phosphate uridylyltransferase), complemented on plasmid (protein, listed as Escherichia coli) MAAINTKVKKAVIPVAGLGTRMLPATKAIPKEMLPLVDKPLIQYVVNECIAAGITEIVLVTHSSKNSIENHFDTSFELEAMLEKRVKRQLLDEVQSICPPHVTIMQVRQGLAKGLGHAVLCAHPVVGDEPVAVILPDVILDEYESDLSQDNLAEMIRRFDETGHSQIMVEPVADVTAYGVVDCKGVELAPGESVPMVGVVEKPKADVAPSNLAIVGRYVLSADIWPLLAKTPPGAGDEIQLTDAIDMLIEKETVEAYHMKGKSHDCGNKLGYMQAFVEYGIRHNTLGTEFKAWLEEEMGIKK	improved overall glycosylation
pgm-galU: pgm and galU (SEQ ID NOS: 92 and 93) complemented together on plasmid (protein, listed as Escherichia coli) chain 1: MAIHNRAGQPAQQSDLINVAQLTAQYYVLKPEAGNAEHAVKFGTSGHRGSAARHSFNEPHILAIAQAIAEERAKNGITGPCYVGKDTHALSEPAFISVLEVLAANGVDVIVQENNGFTPTPAVSNAILVHNKKGGPLADGIVITPSHNPPEDGGIKYNPPNGGPADTNVTKVVEDRANALLADGLKGVKRISLDEAMASGHVKEQDLVQPFVEGLADIVDMAAIQKAGLTLGVDPLGGSGIEYWKRIGEYYNLNLTIVNDQVDQTFRFMHLDKDGAIRMDCSSECAMAGLLALRDKFDLAFANDPDYDRHGIVTPAGLMNPNHYLAVAINYLFQHRPQWGKDVAVGKTLVSSAMIDRVVNDLGRKLVEVPVGFKWFVDGLFDGSFGFGGEESAGASFLRFDGTPWSTDKDGIIMCLLAAEITAVTGKNPQEHYNELAKRFGAPSYNRLQAAATSAQKAALSKLSPEMVSASTLAGDPITARLTAAPGNGASIGGLKVMTDNGWFAARPSGTEDAYKIYCESFLGEEHRKQIEKEAVEIVSEVLKNA chain 2: MAAINTKVKKAVIPVAGLGTRMLPATKAIPKEMLPLVDKPLIQYVVNECIAAGITEIVLVTHSSKNSIENHFDTSFELEAMLEKRVKRQLLDEVQSICPPHVTIMQVRQGLAKGLGHAVLCAHPVVGDEPVAVILPDVILDEYESDLSQDNLAEMIRRFDETGHSQIMVEPVADVTAYGVVDCKGVELAPGESVPMVGVVEKPKADVAPSNLAIVGRYVLSADIWPLLAKTPPGAGDEIQLTDAIDMLIEKETVEAYHMKGKSHDCGNKLGYMQAFVEYGIRHNTLGTEFKAWLEEEMGIKK	improved overall glycosylation
ugpA: Bifidobacterium bifidum ugpA, complemented on plasmid (protein, listed as Bifidobacterium bifidum) MAFAEDLKRTEKMTVDDVFEQSAQKMREQGMSEIAISQFRHAYHVWASEKESAWIREDTVEPLHGVRSFHDVYKTIDHDKAVHAFAKTAFLKLNGGLGTSMGLQCAKSLLPVRRHKARQMRFLDIILGQVLTARTRLNVPLPVTFMNSFRTSDDTMKALRHQRKFKQTDIPLEIIQHQEPKIDAATGAPASWPANPDLEWCPPGHGDLFSTLRESGLLDTLLEHGFEYLFISNSDNLGARPSRTLAQYFEDTGAPFMVEVANRTYADRKGGHIVRDTATGRLILREMSQVHPDDKDAAQDIAKHPYFNTNNIWVRIDVLRDMLAEHDGVLPLPVIINNKTVDPIDPQSPAVVQLETAMGAAIGLFEGAICVQVDRMRFLPVKTTNDLFIMRSDRFHLTDSYEMEDGNYIFPNVDLDPRYYKNIEDFNERFPYNVPSLAAANSVSIKGDWTFGRDVIMFADARLEDRNEPSYVPNGEYVGPMGIEPGDWV	improved overall glycosylation
ycjU: E. coli ycjU (β-phosphoglucomutase), complemented on plasmid (protein, listed as Escherichia coli) MKLQGVIFDLDGVITDTAHLHFQAWQQIAAEIGISIDAQFNESLKGISRDESLRRILQHGGKEGDFNSQERAQLAYRKNLLYVHSLRELTVNAVLPGIRSLLADLRAQQISVGLASVSLNAPTILAALELREFFTFCADASQLKNSKPDPEIFLAACAGLGVPPQACIGIEDAQAGIDAINASGMRSVGIGAGLTGAQLLLPSTESLTWPRLSAFWQNV	improved overall glycosylation
